IC50 and EC50 data for two molecules are collected here from patent CN110256561A (DONGDA BIOLOGY TECH SUZHOU CO LTD, dated 2019).

Test [1] has as its target T1, CTLA-4-hFc蛋白 (human CTLA-4 fused to human Fc) (human, UniProt P16410 36-161, limits assumed).
T1 construct: Coated on ELISA plates; also called CTLA-4-Fc; not shown: human Fc (hFc)
T1 sequence (looked up): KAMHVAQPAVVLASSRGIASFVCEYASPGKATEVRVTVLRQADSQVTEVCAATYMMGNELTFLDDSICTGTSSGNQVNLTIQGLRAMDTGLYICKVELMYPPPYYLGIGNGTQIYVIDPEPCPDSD
The test is described as follows: competition ELISA, CTLA-4-hFc coated, competitor CD80-biotin. In general terms: An ELISA detects its analyte on a solid surface through an enzyme-linked reagent.

For test [2], the target named is T2, 293T-CTLA-4细胞 (human CTLA-4 on 293T cells) (human, UniProt P16410 36-223).
T2 construct: whole, on cells; also called 人CTLA-4
T2 sequence (looked up): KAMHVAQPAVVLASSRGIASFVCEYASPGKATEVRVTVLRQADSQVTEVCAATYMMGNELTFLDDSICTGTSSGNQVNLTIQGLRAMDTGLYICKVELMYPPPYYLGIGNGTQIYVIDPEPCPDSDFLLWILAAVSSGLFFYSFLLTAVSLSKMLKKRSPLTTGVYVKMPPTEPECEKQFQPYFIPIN
The test is described as follows: competition FACS on 293T-CTLA-4 cells, competitor CD80-biotin; the lowest, tied by Table 8 to 3D2A10.

Test [3] concerns the target T1, CTLA-4-hFc蛋白 (human CTLA-4 fused to …). Nature of the test: ELISA, CTLA-4-hFc coated; low end of the group's range, tied by Table 5 to 3D2A10.
The target is the same in test [4]. Nature of the test: competition ELISA, CTLA-4-hFc coated, competitor CD80-biotin; the lowest, tied by Table 6 to 3D2A10.
Test [5] has as its target T2, 293T-CTLA-4细胞 (human CTLA-4 on 293T …). Nature of the test: competition FACS on 293T-CTLA-4 cells, competitor CD80-biotin.
Test [6] shares this target. The test is described as follows: FACS on 293T-CTLA-4 cells.
Test [7] addresses T1, CTLA-4-hFc蛋白 (human CTLA-4 fused to …). Nature of the test: ELISA, CTLA-4-hFc coated.
Test [8] addresses T2, 293T-CTLA-4细胞 (human CTLA-4 on 293T …). The test is described as follows: FACS on 293T-CTLA-4 cells; the lowest, tied by Table 7 to 10F8D1.

B1: 3D2A10人源化抗体 (humanized CTLA-4 antibody 3D2A10, IgG1) (antibody, V domains shown)
VH: QVTLKESGPVLVKPTETLTLTCTVSGFSLTNYAVHWIRQPPGKALEWLGVIWSGGYIDYNAVFISRLTISKDNSKSQAVLTMTNMDPVDTATYYCARSGETGTYYFDYWGQGTLVTVSS
VL: EIVMTQSPATLSVSPGERATLSCRASENIYSYLAWYQQKPGQAPRLLVYSATKLANGIPARFSGSGSGTEYTLTISSLQSEDFAVYYCQHFWGTPWTFGGGTKVEIKR
notes: Humanized by CDR grafting with back mutations, built as IgG1, made in 293 cells; also called 人源化CTLA-4抗体3D2A10
One may read the IC50 as the midpoint of a concentration-inhibition curve. The term EC50 denotes the midpoint of the concentration-response curve. Take B1: the IC50 in test [1] was 0.352 µg/mL; in test [2] it was below 0.7 µg/mL; in test [4] it was below 0.36 µg/mL; in test [5], 0.696 µg/mL. In addition, the EC50 was 0.001 µg/mL in test [3], 0.0788 µg/mL in test [6] and 0.0012 µg/mL in test [7].

B2: 10F8D1人源化抗体 (humanized CTLA-4 antibody 10F8D1, IgG1) (antibody, V domains shown)
VH: QVQLVQSGAEVKKPGASVKVSCKASGYTFTNYWMHWVRQAPGQGLEWIGYINPTTTYTNYNQKFKDRATLTADKSISTAYMELSRLRSDDTAVYYCATTAQATGYGMDFWGQGTLVTVSS
VL: DIVMTQSPDSLAVSLGERATINCKSTQSLLNSGNQRNYLTWYQQKPGQPPKLLIYWASTRESGVPDRFSGSGSGTDFTLTISSLQAEDVAVYYCQNDYSFPLTFGQGTKLEIKR
notes: Humanized by CDR grafting with back mutations, built as IgG1, made in 293 cells; also called 人源化CTLA-4抗体10F8D1
As to B2, the IC50 in test [1] was found to be 0.388 µg/mL; in test [5] it was 1.66 µg/mL. In addition, the EC50 in test [6] was 0.0231 µg/mL; in test [7], 0.00149 µg/mL; in test [8] it was below 0.024 µg/mL.
